This assay deals with T1, 6×His标签 (组氨酸标签) (also: coupled to ovalbumin carrier, site not given here).
T1 construct: also called 多组氨酸标签; hexa组氨酸标签
T1 peptide: HHHHHH
Nature of the assay: indirect phage-ELISA of phage-displayed clones after three rounds of solid-phase panning on 6×His-OVA. On the technique in general: In an ELISA, binding on a coated surface is turned into a signal by an enzyme label.

No end group written: not given here.

B1: 针对His标签的单域重链抗体 (特异性识别组氨酸标签的纳米抗体) (VHH)
VHH: QVQLVESGGGLVQPGQSLRLSCSAPGFTFNNFGLAWFRQAPGKEREEVACIRSHGVRTHYGASVEGRFTISRDSDNKALWLQMNDLKPEDSAVYYCAADPVPANFDTCVHNGYDYWGLGTQVTVSS
notes: also called 抗His标签单域重链抗体
Take B1: the binding result is given as “binds”.

(Values after patent publication CN106146656A (UNIV BEIJING, dated 2016).)
